{"source": "patent US20220354962A1", "about": "(University of Pennsylvania, published 2022)", "binders": {"B1": {"name": "LASIC Protein G adapter with C-terminal STEPL peptide (TAMRA; TAMRA-DBCO; FAM-Azide; Biotin), BPA position not stated (designed binder)", "chain": "MTFKLIINGKTLKGEITIEAVDAAEAEKIFKQYANDYGIDGEWTYDDATKTFTVTE", "modifications": "also: BPA at unstated position, C-terminal Gly-Gly-Gly peptide carrying label (TAMRA, TAMRA-DBCO, FAM-azide or biotin)", "notes": "also called TAMRA dye-tagged LASIC adapter; TAMRA labeled Protein G adapter protein"}}, "target": "BSA (UniProt P02769 25-607)", "test": "photocrosslinking with TAMRA-tagged adapter, reducing SDS-PAGE, fluorescence image", "note": "Where no end group is shown, it is not given here."}
{"binder": "B1", "values": [{"measurement": "binding result", "result": "no binding"}]}
